Data as given in the supplement of paper PMC12042874.
± gives the uncertainty stated by the source.

Assay: amyloid nucleation score (Sup35N fusion, yeast selection) (log enrichment); library NNK3; higher = more nucleation; inactive = no reads after selection
Outline: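 On medium lacking adenine and uracil, psi-negative yeast expressing peptides of 20 random codons fused to Sup35N were grown 7 days at 30°C after a 24-hour induction with 100 μM copper sulfate. Illumina sequencing of input and output plasmid inserts gave the reads, and sequences under 100 input reads were excluded. The nucleation score is the DiMSum log enrichment of output over input reads, centred on the mode score of non-aggregating sequences.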

Q: Which amyloid nucleation score does the source give for RTSVDQLEMKMRFSMSFGWL here?
A: 0.449 ± 0.64

Q: With RVEIRIIS as the substance, how does the amyloid nucleation score read?
A: inactive

Q: Which amyloid nucleation score does the source give for RVFYIVDMVFIFKRCSIRES here?
A: inactive

Q: Which amyloid nucleation score does the source give for RVGTMLHGDWAYCHR here?
A: inactive

Q: For RVKSKDANSGGSMVCASRVL, which amyloid nucleation score is on record?
A: inactive

Q: With RVLQKAPRWAMGFARW as the substance, how does the amyloid nucleation score read?
A: inactive

Q: For RVLYSFQCAFLMDKETSSGR, which amyloid nucleation score is on record?
A: inactive

Q: With RVMFMASVWSNCGLWSSGTS as the substance, how does the amyloid nucleation score read?
A: 1.39 ± 0.15

Q: With RVRFLCIMFWDH as the substance, how does the amyloid nucleation score read?
A: -0.038 ± 0.66

Q: With RVRSDGANGWGVVMNACWMS as the substance, how does the amyloid nucleation score read?
A: inactive

Q: With RVSNGPIIYRRMHAAGDNLT as the substance, how does the amyloid nucleation score read?
A: inactive

Q: For RVSYKICKERKF, which amyloid nucleation score is on record?
A: inactive

Q: For RVYFKTGFPMVLLSKKRGSE, which amyloid nucleation score is on record?
A: 0.952 ± 0.19

Q: For RVYVLLLNGQPFCRKYRL, which amyloid nucleation score is on record?
A: inactive

Q: For RWDVEIPNLQICKRT, which amyloid nucleation score is on record?
A: inactive

Q: With RWFLSWWIYFEVKPNDNSFF as the substance, how does the amyloid nucleation score read?
A: inactive

Q: With RWLLMYLLLRSTATN as the substance, how does the amyloid nucleation score read?
A: inactive

Q: For RWPLMMTFSATIVGYTVVWA, which amyloid nucleation score is on record?
A: inactive

Q: Which amyloid nucleation score does the source give for RWRFRRWVS here?
A: inactive

Q: With RWSLYLGRSRMKLRATVHSF as the substance, how does the amyloid nucleation score read?
A: inactive

Q: Which amyloid nucleation score does the source give for RWSTLIVTCSAGPSDFVCDG here?
A: inactive

Q: Which amyloid nucleation score does the source give for RWWKKTIQIFKCFVKHLEWG here?
A: inactive

Q: With RYAHRSKRNTSWHVYMFKVV as the substance, how does the amyloid nucleation score read?
A: inactive

Q: With RYCVS as the substance, how does the amyloid nucleation score read?
A: inactive

Q: Which amyloid nucleation score does the source give for RYLRKEDDWFIDRAVD here?
A: inactive

Q: With RYMHGYCILET as the substance, how does the amyloid nucleation score read?
A: inactive

Q: Which amyloid nucleation score does the source give for RYNGTGIKYWKTY here?
A: inactive

Q: Which amyloid nucleation score does the source give for RYWWNYWLLPRWFFVQLGSC here?
A: inactive

Q: Which amyloid nucleation score does the source give for RYYIMILLS here?
A: inactive

Q: For SACSYYTMHHIFGAMFHN, which amyloid nucleation score is on record?
A: inactive

Q: With SAFGTQGYCKSSVFPEASPR as the substance, how does the amyloid nucleation score read?
A: inactive

Q: For SAFNEFFF, which amyloid nucleation score is on record?
A: inactive

Q: Which amyloid nucleation score does the source give for SAFTFPTLWIFTNPTVHLLF here?
A: inactive

Q: For SAGAQSHSIYRAAVLSACLY, which amyloid nucleation score is on record?
A: inactive

Q: With SAGWHTYRIKHPVSFVGKTI as the substance, how does the amyloid nucleation score read?
A: inactive

Q: With SAIPKGKATITFPPLKSFVR as the substance, how does the amyloid nucleation score read?
A: 1.02 ± 0.13

Q: For SALFMLPYALTRMVYANLLQ, which amyloid nucleation score is on record?
A: -0.004 ± 0.75

Q: For SARSVIYYVPGLSTWSVTS, which amyloid nucleation score is on record?
A: inactive

Q: For SASVGFGHSSWNPIIGMIRI, which amyloid nucleation score is on record?
A: inactive

Q: Which amyloid nucleation score does the source give for SAVYIDA here?
A: inactive

Q: With SAVYMVSGIGNNSHTSAFIR as the substance, how does the amyloid nucleation score read?
A: 0.614 ± 0.17

Q: With SCAKQLCYHGFLMGH as the substance, how does the amyloid nucleation score read?
A: inactive

Q: With SCALDLIDLQKGVTSHKEFI as the substance, how does the amyloid nucleation score read?
A: inactive

Q: For SCFISSMYFASWKFRISNGV, which amyloid nucleation score is on record?
A: inactive

Q: With SCGMERRLIIYSSSHNNILY as the substance, how does the amyloid nucleation score read?
A: 0.178 ± 0.88

Q: Which amyloid nucleation score does the source give for SCGTMTEIGVGRVLRFFVIL here?
A: inactive

Q: Which amyloid nucleation score does the source give for SCIFPILGVFADDFTMTFTW here?
A: inactive

Q: Which amyloid nucleation score does the source give for SCLMLSIYSSQTWKSLCGLK here?
A: 0.95 ± 0.12

Q: For SCMGFVRQANIVG, which amyloid nucleation score is on record?
A: inactive

Q: With SCNQKMGHLNFCNFFWTLTV as the substance, how does the amyloid nucleation score read?
A: inactive

Q: For SCRWMTMCAINSP, which amyloid nucleation score is on record?
A: 0.726 ± 0.2

Q: For SCSCESCYKGVAEYDLVKDV, which amyloid nucleation score is on record?
A: 1.32 ± 0.16

Q: Which amyloid nucleation score does the source give for SCSIVDWSLMIVTYLCWLTN here?
A: inactive

Q: For SCVDLPWQMRLRHRKCQFDG, which amyloid nucleation score is on record?
A: inactive

Q: Which amyloid nucleation score does the source give for SCYCN here?
A: inactive

Q: With SDDKGVWLIMAGLCGIWSMY as the substance, how does the amyloid nucleation score read?
A: 2.33 ± 0.082

Q: Which amyloid nucleation score does the source give for SDEFGDHEGCMLAFRASAVW here?
A: inactive

Q: With SDEYTVTFHPSTPGKVSERD as the substance, how does the amyloid nucleation score read?
A: inactive

Q: Which amyloid nucleation score does the source give for SDGIYV here?
A: inactive

Q: Which amyloid nucleation score does the source give for SDGKQQLFKENS here?
A: inactive

Q: For SDMCMVLFLLTVYFVMSGRC, which amyloid nucleation score is on record?
A: 0.133 ± 0.67

Q: Which amyloid nucleation score does the source give for SDNELMIAFESG here?
A: inactive

Q: Which amyloid nucleation score does the source give for SDRAHGQFFRPGERLPSNPW here?
A: -0.069 ± 0.52

Q: For SDRLS, which amyloid nucleation score is on record?
A: inactive

Q: With SDVKSS as the substance, how does the amyloid nucleation score read?
A: inactive

Q: Which amyloid nucleation score does the source give for SERWGIESHNRNSNMRKTGW here?
A: inactive

Q: With SEYYCYICLMVSIGFSANLL as the substance, how does the amyloid nucleation score read?
A: inactive

Q: For SFCECFQSSKSCKIWTVWIV, which amyloid nucleation score is on record?
A: inactive

Q: Which amyloid nucleation score does the source give for SFCFFRVTLSCTC here?
A: inactive

Q: For SFCMCGGLLVRSYRSFRFVR, which amyloid nucleation score is on record?
A: inactive

Q: Which amyloid nucleation score does the source give for SFDQNRRVVIFVSPHSEGMR here?
A: inactive

Q: Which amyloid nucleation score does the source give for SFEPRSLMYNTNRGI here?
A: inactive

Q: With SFFCN as the substance, how does the amyloid nucleation score read?
A: inactive

Q: For SFFTWYTSFSKDDLWSGLTV, which amyloid nucleation score is on record?
A: inactive

Q: With SFGIGSI as the substance, how does the amyloid nucleation score read?
A: inactive

Q: For SFHLQVLPRSGVLACISTGF, which amyloid nucleation score is on record?
A: inactive

Q: For SFKKPRPNYLPVFLVYLCNS, which amyloid nucleation score is on record?
A: inactive

Q: With SFLAYYMFYM as the substance, how does the amyloid nucleation score read?
A: inactive

Q: Which amyloid nucleation score does the source give for SFLIDPTHGLYSLRFFIFCW here?
A: inactive

Q: For SFLPTV, which amyloid nucleation score is on record?
A: 0.93 ± 0.23

Q: Which amyloid nucleation score does the source give for SFLSKGRSRSSFQWYQGHRA here?
A: -0.302 ± 1.1

Q: With SFLTKSQKTNCGSLKEMCVG as the substance, how does the amyloid nucleation score read?
A: inactive

Q: With SFMITFLIMRHVASFA as the substance, how does the amyloid nucleation score read?
A: inactive

Q: Which amyloid nucleation score does the source give for SFNCPNAWSVYLL here?
A: inactive

Q: Which amyloid nucleation score does the source give for SFNHCM here?
A: inactive

Q: For SFNVDAYMNINCW, which amyloid nucleation score is on record?
A: 1.02 ± 0.21

Q: With SFPWFDTYSLDVSWHISWRS as the substance, how does the amyloid nucleation score read?
A: inactive

Q: Which amyloid nucleation score does the source give for SFRDPHLTHSSVDCRTVYHI here?
A: inactive

Q: For SFSELVSAASKTQTVCRRKC, which amyloid nucleation score is on record?
A: inactive

Q: For SFSFSKSNVSERDLCSTCTV, which amyloid nucleation score is on record?
A: inactive

Q: For SFSKLVFR, which amyloid nucleation score is on record?
A: inactive

Q: With SFSSLQFVNIATPHY as the substance, how does the amyloid nucleation score read?
A: 0.42 ± 0.2

Q: Which amyloid nucleation score does the source give for SFSVTMPMPIYTTLNGPLTN here?
A: inactive

Q: Which amyloid nucleation score does the source give for SFSYDTRVDVSAILQSQNSL here?
A: inactive

Q: With SFTMMRSFSA as the substance, how does the amyloid nucleation score read?
A: inactive

Q: Which amyloid nucleation score does the source give for SFVPDLRARVMSCSGCSTLG here?
A: inactive

Q: With SFVYVSALVSLHGGFADAKF as the substance, how does the amyloid nucleation score read?
A: 0.885 ± 0.22

Q: Which amyloid nucleation score does the source give for SFWCRVSHLSRDTFMDVRFM here?
A: inactive

Q: For SFWTQ, which amyloid nucleation score is on record?
A: inactive

Q: For SFYEEGFVSYLDIRGIVYGA, which amyloid nucleation score is on record?
A: inactive

Q: Which amyloid nucleation score does the source give for SFYLVYRGIFDISLTEFVL here?
A: inactive

Q: For SGCDLLFFYYHRRTVPLANW, which amyloid nucleation score is on record?
A: inactive

Q: With SGDPGGHQSRR as the substance, how does the amyloid nucleation score read?
A: inactive

Q: With SGFLYCNLSKSSCYAFQAGG as the substance, how does the amyloid nucleation score read?
A: inactive

Q: For SGFVRWRSISFLPNHERLST, which amyloid nucleation score is on record?
A: inactive

Q: For SGISCGLGLATGRKYGSGAV, which amyloid nucleation score is on record?
A: inactive

Q: Which amyloid nucleation score does the source give for SGKFTSGLIVRSASIGLYST here?
A: 0.747 ± 0.26

Q: With SGLLSAVLDAAS as the substance, how does the amyloid nucleation score read?
A: inactive

Q: With SGMLIVLRSWLDRDSICEGR as the substance, how does the amyloid nucleation score read?
A: inactive

Q: With SGSAQLECASSRAYVMIVHL as the substance, how does the amyloid nucleation score read?
A: 0.425 ± 0.18

Q: For SGVGCKSLFWSSVAYMSIWG, which amyloid nucleation score is on record?
A: inactive

Q: Which amyloid nucleation score does the source give for SGVSFDSIGVSVLQTHGGLR here?
A: inactive

Q: With SGWKQSGS as the substance, how does the amyloid nucleation score read?
A: inactive

Q: For SHGHYCIVFVFTRL, which amyloid nucleation score is on record?
A: inactive

Q: For SHHSHSNDVALGSSISF, which amyloid nucleation score is on record?
A: inactive

Q: For SHNGLKTLNGSFLAYLSCRA, which amyloid nucleation score is on record?
A: 0.904 ± 0.16

Q: For SHNSHGYFLSVLVVMRMSGR, which amyloid nucleation score is on record?
A: inactive
